# Experimental data reported in patent US20210369822A1 (published 2021).
# Biological target: hERG (UniProt Q12809 1-1159)
# Assay: cell-based or functional assay
# Chain of hERG (Q12809 whole entry): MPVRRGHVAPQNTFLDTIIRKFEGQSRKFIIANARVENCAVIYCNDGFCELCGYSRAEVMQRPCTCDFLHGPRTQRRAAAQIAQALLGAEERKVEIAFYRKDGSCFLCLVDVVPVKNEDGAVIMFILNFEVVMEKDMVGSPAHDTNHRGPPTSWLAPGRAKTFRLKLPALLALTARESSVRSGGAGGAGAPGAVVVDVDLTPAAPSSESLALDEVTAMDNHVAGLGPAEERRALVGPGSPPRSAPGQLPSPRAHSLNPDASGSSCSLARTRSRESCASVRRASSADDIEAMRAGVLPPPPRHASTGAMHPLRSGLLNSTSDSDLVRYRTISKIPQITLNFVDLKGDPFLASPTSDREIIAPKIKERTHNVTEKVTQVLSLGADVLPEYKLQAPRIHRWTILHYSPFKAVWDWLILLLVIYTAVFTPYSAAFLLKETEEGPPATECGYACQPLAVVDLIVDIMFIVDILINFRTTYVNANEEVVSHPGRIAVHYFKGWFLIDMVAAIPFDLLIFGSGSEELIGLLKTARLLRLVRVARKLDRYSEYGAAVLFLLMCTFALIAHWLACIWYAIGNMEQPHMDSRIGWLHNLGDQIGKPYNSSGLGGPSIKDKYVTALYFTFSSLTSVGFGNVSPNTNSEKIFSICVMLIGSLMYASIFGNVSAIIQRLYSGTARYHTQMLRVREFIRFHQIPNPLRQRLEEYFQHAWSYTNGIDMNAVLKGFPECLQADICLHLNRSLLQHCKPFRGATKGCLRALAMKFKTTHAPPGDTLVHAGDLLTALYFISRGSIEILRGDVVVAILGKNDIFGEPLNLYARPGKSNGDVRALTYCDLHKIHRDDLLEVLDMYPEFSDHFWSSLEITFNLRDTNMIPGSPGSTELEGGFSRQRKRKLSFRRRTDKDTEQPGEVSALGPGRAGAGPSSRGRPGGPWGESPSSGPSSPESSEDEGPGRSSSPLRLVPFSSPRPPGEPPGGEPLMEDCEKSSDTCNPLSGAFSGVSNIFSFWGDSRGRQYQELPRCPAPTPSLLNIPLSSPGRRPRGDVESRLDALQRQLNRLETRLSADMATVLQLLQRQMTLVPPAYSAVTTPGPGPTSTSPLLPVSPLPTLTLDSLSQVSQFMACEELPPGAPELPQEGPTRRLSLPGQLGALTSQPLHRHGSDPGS
binder,measurement,value
VKFNKPFVFLMIEQNTK [SP16],"IC50 value (µM), hERG FastPatch assay",> 25 µM
